Results taken from article PMC6400558 (2019).
Substitutions are numbered along the chain they refer to. Numbers in names are those of the source.

T1: dynein intermediate chain (DIC), Q13409
T1 chain: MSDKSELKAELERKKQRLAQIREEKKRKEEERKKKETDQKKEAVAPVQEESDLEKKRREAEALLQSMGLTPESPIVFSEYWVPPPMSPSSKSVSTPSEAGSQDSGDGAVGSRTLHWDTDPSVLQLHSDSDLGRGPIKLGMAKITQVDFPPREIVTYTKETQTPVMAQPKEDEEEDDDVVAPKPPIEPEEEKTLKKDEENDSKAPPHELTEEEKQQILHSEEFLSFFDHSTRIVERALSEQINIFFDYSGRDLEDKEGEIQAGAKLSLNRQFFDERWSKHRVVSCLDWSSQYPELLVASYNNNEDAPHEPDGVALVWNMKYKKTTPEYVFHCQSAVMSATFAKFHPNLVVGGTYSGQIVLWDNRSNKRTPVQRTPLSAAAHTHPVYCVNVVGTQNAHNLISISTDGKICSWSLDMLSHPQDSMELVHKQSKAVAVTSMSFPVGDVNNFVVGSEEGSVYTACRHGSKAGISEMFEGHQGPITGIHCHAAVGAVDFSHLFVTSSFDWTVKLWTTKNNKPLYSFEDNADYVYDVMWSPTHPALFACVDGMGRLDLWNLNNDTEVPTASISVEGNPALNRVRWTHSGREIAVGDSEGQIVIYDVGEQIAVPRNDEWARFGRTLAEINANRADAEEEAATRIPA

B1: MBP-tagged Hook2 Hook+CC1 (N427) WT, Q96ED9 I150A (protein)
chain: MSVDKAELCGSLLTWLQTFHVPSPCASPQDLSSGLAVAYVLNQIDPSWFNEAWLQGISEDPGPNWKLKVSNLKMVLRSLVEYSQDVLAHPVSEEHLPDVSLIGEFSDPAELGKLLQLVLGCAISCEKKQDHIQRIMTLEESVQHVVMEAAQELMTKDTPDSLSPETYGNFDSQSRRYYFLSEEAEEGDELQQRCLDLERQLMLLSEEKQSLAQENAGLRERMGRPEGEGTPGLTAKKLLLLQSQLEQLQEENFRLESGREDERLRCAELEREVAELQHRNQALTSLAQEAQALKDEMDELRQSSERAGQLEATLTSCRRRLGELRELRRQVRQLEERNAGHAERTRQLEDELRRAGSLRAQLEAQRRQVQELQGQRQEEAMKAEKWLFECRNLEEKYESVTKEKERLLAERDSLREANEELRCAQLQ
B2: MBP-tagged Hook2 Hook+CC1 (N427) WT, Q96ED9 Q143A (protein)
chain: B1 chain with Q143A, A150I

Biological target: T1, dynein intermediate chain (DIC), Q13409
Assay: MBP pull-down from HEK293T cell lysate, immunoblot, band intensity quantified
Details: chain shown with the change; n = 3; parent: est. 0.46; read off a plot

Binder	response (Pulldown/Input)
B1	0.02
B2	0.02
